Test results: the Human Domainome abundance scans (Beltran et al. 2025)
± gives the uncertainty stated by the source.

B1: Histone H1t, residues 44 to 112; numbered along this chain, P22492 (parent)
chain: VSKLITEALSVSQERVGMSLVALKKALAAAGYDVEKNNSRIKLSLKSLVNKGILVQTRGTGASGSFKLS

Variants of: B1
Assay: abundance fitness (aPCA) (normalised: wild type 0, dead -1); higher = more abundant; growth selection in yeast, the domain comes from the species named
Conditions: Homo sapiens

With VSKLITEALSWSQERVGMSLVALKKALAAAGYDVEKNNSRIKLSLKSLVNKGILVQTRGTGASGSFKLS [V11W] as the variant, how does the abundance fitness read?
Its abundance fitness is -0.04 ± 0.041.

Which abundance fitness does the source give for VSKLITEALSFSQERVGMSLVALKKALAAAGYDVEKNNSRIKLSLKSLVNKGILVQTRGTGASGSFKLS [V11F] here?
Its abundance fitness is -0.138 ± 0.035.

Which abundance fitness does the source give for VSKLITEALSLSQERVGMSLVALKKALAAAGYDVEKNNSRIKLSLKSLVNKGILVQTRGTGASGSFKLS [V11L] here?
Its abundance fitness is -0.129 ± 0.034.

Which abundance fitness does the source give for VSKLITEALSNSQERVGMSLVALKKALAAAGYDVEKNNSRIKLSLKSLVNKGILVQTRGTGASGSFKLS [V11N] here?
The abundance fitness was -0.144 ± 0.071.

With VSKLITEALSRSQERVGMSLVALKKALAAAGYDVEKNNSRIKLSLKSLVNKGILVQTRGTGASGSFKLS [V11R] as the variant, how does the abundance fitness read?
The abundance fitness was -0.013 ± 0.047.

Which abundance fitness does the source give for VSKLITEALSKSQERVGMSLVALKKALAAAGYDVEKNNSRIKLSLKSLVNKGILVQTRGTGASGSFKLS [V11K] here?
Its abundance fitness is 0.053 ± 0.064.

Which abundance fitness does the source give for VSKLITEALSYSQERVGMSLVALKKALAAAGYDVEKNNSRIKLSLKSLVNKGILVQTRGTGASGSFKLS [V11Y] here?
The abundance fitness was -0.027 ± 0.043.

For VSKLITEALSDSQERVGMSLVALKKALAAAGYDVEKNNSRIKLSLKSLVNKGILVQTRGTGASGSFKLS [V11D], which abundance fitness is on record?
The abundance fitness was -0.138 ± 0.055.

With VSKLITEALSCSQERVGMSLVALKKALAAAGYDVEKNNSRIKLSLKSLVNKGILVQTRGTGASGSFKLS [V11C] as the variant, how does the abundance fitness read?
Its abundance fitness is -0.077 ± 0.037.

With VSKLITEALSGSQERVGMSLVALKKALAAAGYDVEKNNSRIKLSLKSLVNKGILVQTRGTGASGSFKLS [V11G] as the variant, how does the abundance fitness read?
Its abundance fitness is -0.101 ± 0.032.

For VSKLITEALSESQERVGMSLVALKKALAAAGYDVEKNNSRIKLSLKSLVNKGILVQTRGTGASGSFKLS [V11E], which abundance fitness is on record?
Its abundance fitness is -0.106 ± 0.063.

With VSKLITEALSMSQERVGMSLVALKKALAAAGYDVEKNNSRIKLSLKSLVNKGILVQTRGTGASGSFKLS [V11M] as the variant, how does the abundance fitness read?
The abundance fitness was -0.255 ± 0.056.

For VSKLITEALSSSQERVGMSLVALKKALAAAGYDVEKNNSRIKLSLKSLVNKGILVQTRGTGASGSFKLS [V11S], which abundance fitness is on record?
The abundance fitness was -0.061 ± 0.056.

With VSKLITEALSISQERVGMSLVALKKALAAAGYDVEKNNSRIKLSLKSLVNKGILVQTRGTGASGSFKLS [V11I] as the variant, how does the abundance fitness read?
Its abundance fitness is -0.185 ± 0.058.

Which abundance fitness does the source give for VSKLITEALHVSQERVGMSLVALKKALAAAGYDVEKNNSRIKLSLKSLVNKGILVQTRGTGASGSFKLS [S10H] here?
The abundance fitness was -0.275 ± 0.14.

Which abundance fitness does the source give for VSKLITEALWVSQERVGMSLVALKKALAAAGYDVEKNNSRIKLSLKSLVNKGILVQTRGTGASGSFKLS [S10W] here?
Its abundance fitness is -0.788 ± 0.13.

Which abundance fitness does the source give for VSKLITEALQVSQERVGMSLVALKKALAAAGYDVEKNNSRIKLSLKSLVNKGILVQTRGTGASGSFKLS [S10Q] here?
Its abundance fitness is -0.165 ± 0.12.

For VSKLITEALPVSQERVGMSLVALKKALAAAGYDVEKNNSRIKLSLKSLVNKGILVQTRGTGASGSFKLS [S10P], which abundance fitness is on record?
Its abundance fitness is -0.835 ± 0.18.

For VSKLITEALYVSQERVGMSLVALKKALAAAGYDVEKNNSRIKLSLKSLVNKGILVQTRGTGASGSFKLS [S10Y], which abundance fitness is on record?
Its abundance fitness is -0.286 ± 0.04.

Which abundance fitness does the source give for VSKLITEALMVSQERVGMSLVALKKALAAAGYDVEKNNSRIKLSLKSLVNKGILVQTRGTGASGSFKLS [S10M] here?
Its abundance fitness is -0.175 ± 0.034.

Which abundance fitness does the source give for VSKLITEALKVSQERVGMSLVALKKALAAAGYDVEKNNSRIKLSLKSLVNKGILVQTRGTGASGSFKLS [S10K] here?
Its abundance fitness is -0.17 ± 0.062.

For VSKLITEALFVSQERVGMSLVALKKALAAAGYDVEKNNSRIKLSLKSLVNKGILVQTRGTGASGSFKLS [S10F], which abundance fitness is on record?
Its abundance fitness is -0.655 ± 0.034.

With VSKLITEALRVSQERVGMSLVALKKALAAAGYDVEKNNSRIKLSLKSLVNKGILVQTRGTGASGSFKLS [S10R] as the variant, how does the abundance fitness read?
Its abundance fitness is -0.129 ± 0.084.

With VSKLITEALIVSQERVGMSLVALKKALAAAGYDVEKNNSRIKLSLKSLVNKGILVQTRGTGASGSFKLS [S10I] as the variant, how does the abundance fitness read?
The abundance fitness was -0.316 ± 0.038.

For VSKLITEALNVSQERVGMSLVALKKALAAAGYDVEKNNSRIKLSLKSLVNKGILVQTRGTGASGSFKLS [S10N], which abundance fitness is on record?
Its abundance fitness is -0.024 ± 0.053.

With VSKLITEALDVSQERVGMSLVALKKALAAAGYDVEKNNSRIKLSLKSLVNKGILVQTRGTGASGSFKLS [S10D] as the variant, how does the abundance fitness read?
The abundance fitness was -0.029 ± 0.087.

With VSKLITEALGVSQERVGMSLVALKKALAAAGYDVEKNNSRIKLSLKSLVNKGILVQTRGTGASGSFKLS [S10G] as the variant, how does the abundance fitness read?
Its abundance fitness is 0.027 ± 0.1.

Which abundance fitness does the source give for VSKLITEALVVSQERVGMSLVALKKALAAAGYDVEKNNSRIKLSLKSLVNKGILVQTRGTGASGSFKLS [S10V] here?
The abundance fitness was -0.167 ± 0.058.

With VSKLITEALLVSQERVGMSLVALKKALAAAGYDVEKNNSRIKLSLKSLVNKGILVQTRGTGASGSFKLS [S10L] as the variant, how does the abundance fitness read?
Its abundance fitness is -0.261 ± 0.029.

Which abundance fitness does the source give for VSKLITEALTVSQERVGMSLVALKKALAAAGYDVEKNNSRIKLSLKSLVNKGILVQTRGTGASGSFKLS [S10T] here?
The abundance fitness was 0.016 ± 0.064.

For VSKLITEALEVSQERVGMSLVALKKALAAAGYDVEKNNSRIKLSLKSLVNKGILVQTRGTGASGSFKLS [S10E], which abundance fitness is on record?
The abundance fitness was -0.41 ± 0.26.

Which abundance fitness does the source give for VSKLITEALCVSQERVGMSLVALKKALAAAGYDVEKNNSRIKLSLKSLVNKGILVQTRGTGASGSFKLS [S10C] here?
The abundance fitness was -0.43 ± 0.087.

Which abundance fitness does the source give for VSKLITEALSVSWERVGMSLVALKKALAAAGYDVEKNNSRIKLSLKSLVNKGILVQTRGTGASGSFKLS [Q13W] here?
The abundance fitness was -0.471 ± 0.091.

Which abundance fitness does the source give for VSKLITEALSVSVERVGMSLVALKKALAAAGYDVEKNNSRIKLSLKSLVNKGILVQTRGTGASGSFKLS [Q13V] here?
Its abundance fitness is -0.342 ± 0.069.

With VSKLITEALSVSKERVGMSLVALKKALAAAGYDVEKNNSRIKLSLKSLVNKGILVQTRGTGASGSFKLS [Q13K] as the variant, how does the abundance fitness read?
The abundance fitness was 0.014 ± 0.05.

Which abundance fitness does the source give for VSKLITEALSVSTERVGMSLVALKKALAAAGYDVEKNNSRIKLSLKSLVNKGILVQTRGTGASGSFKLS [Q13T] here?
Its abundance fitness is -0.128 ± 0.057.

With VSKLITEALSVSYERVGMSLVALKKALAAAGYDVEKNNSRIKLSLKSLVNKGILVQTRGTGASGSFKLS [Q13Y] as the variant, how does the abundance fitness read?
Its abundance fitness is -0.212 ± 0.042.

For VSKLITEALSVSLERVGMSLVALKKALAAAGYDVEKNNSRIKLSLKSLVNKGILVQTRGTGASGSFKLS [Q13L], which abundance fitness is on record?
The abundance fitness was -0.33 ± 0.033.

For VSKLITEALSVSAERVGMSLVALKKALAAAGYDVEKNNSRIKLSLKSLVNKGILVQTRGTGASGSFKLS [Q13A], which abundance fitness is on record?
The abundance fitness was -0.286 ± 0.095.
